The target in experiment [1] is cdk2 (cyclin-associated kinase activity in sea urchin cell extracts) (L. pictus (endogenous in eggs and embryos)).
The target of experiment [2] is dual-phosphorylated ERK1 (fully activated ERK bis-phosphodimer) (L. pictus (endogenous in eggs and embryos)). As to the kind of experiment: native gel or EMSA; whole-cell extracts of eggs/embryos at times after fertilization (control, or U0126 15 min before fertilisation); non-denaturing gel to maintain ERK as a dimer; Western blot with anti-dual-phosphorylated ERK or anti-ERK antibodies. (In general: In western blotting, separated proteins are transferred to a membrane and probed.)

Experiment [3] deals with ERK1, not dual-phosphorylated (inactive ERK dimer in U0126-inhibited embryos) (L. pictus (endogenous in eggs and embryos)). The experiment is described as above.

Turning to “p27^kip1 recombinant protein (from UniProt P46414 1-197) (natural protein)”, the inhibition of Rb C-terminus phosphorylation in the 4 min whole-cell extract with a mixture of Rb and MBP as substrates, with and without p27^kip1 in experiment [1] was determined as 97%.
As to “dual-phosphorylated ERK1 (fully activated ERK bis-phosphodimer) (enzyme)”, in experiment [2], the stoichiometry N came out at 2.
“ERK1, not dual-phosphorylated (inactive ERK dimer in U0126-inhibited embryos) (enzyme)”: in experiment [3], the stoichiometry N worked out at 2.

As a reminder, the stoichiometry N is a count of units in the complex or per binding partner.

(Values after PMC2789238.)
